In assay [1] the target is human CST (CTC1–STN1–TEN1) heterotrimer, recombinant, from HEK293T cells (human) (UniProt Q2NKJ3).
Assay [2] has the same target. Put plainly: co-IP; successive anti-FLAG and anti-HA immunopurifications of 3×FLAG-CTC1, Myc-STN1 and HA-TEN1 from transfected HEK293T cells, 150 mM NaCl in the wash and elution buffers; subunits found by western blot and quantified against insect-cell standards. In general terms: In western blotting, separated proteins are transferred to a membrane and probed.

Where only a bound is given, the exact number is not on record here.

Sequence of human CST (CTC1–STN1–TEN1) heterotrimer, recombinant, from HEK293T cells (human) (Q2NKJ3 whole entry, chain 1 of 3): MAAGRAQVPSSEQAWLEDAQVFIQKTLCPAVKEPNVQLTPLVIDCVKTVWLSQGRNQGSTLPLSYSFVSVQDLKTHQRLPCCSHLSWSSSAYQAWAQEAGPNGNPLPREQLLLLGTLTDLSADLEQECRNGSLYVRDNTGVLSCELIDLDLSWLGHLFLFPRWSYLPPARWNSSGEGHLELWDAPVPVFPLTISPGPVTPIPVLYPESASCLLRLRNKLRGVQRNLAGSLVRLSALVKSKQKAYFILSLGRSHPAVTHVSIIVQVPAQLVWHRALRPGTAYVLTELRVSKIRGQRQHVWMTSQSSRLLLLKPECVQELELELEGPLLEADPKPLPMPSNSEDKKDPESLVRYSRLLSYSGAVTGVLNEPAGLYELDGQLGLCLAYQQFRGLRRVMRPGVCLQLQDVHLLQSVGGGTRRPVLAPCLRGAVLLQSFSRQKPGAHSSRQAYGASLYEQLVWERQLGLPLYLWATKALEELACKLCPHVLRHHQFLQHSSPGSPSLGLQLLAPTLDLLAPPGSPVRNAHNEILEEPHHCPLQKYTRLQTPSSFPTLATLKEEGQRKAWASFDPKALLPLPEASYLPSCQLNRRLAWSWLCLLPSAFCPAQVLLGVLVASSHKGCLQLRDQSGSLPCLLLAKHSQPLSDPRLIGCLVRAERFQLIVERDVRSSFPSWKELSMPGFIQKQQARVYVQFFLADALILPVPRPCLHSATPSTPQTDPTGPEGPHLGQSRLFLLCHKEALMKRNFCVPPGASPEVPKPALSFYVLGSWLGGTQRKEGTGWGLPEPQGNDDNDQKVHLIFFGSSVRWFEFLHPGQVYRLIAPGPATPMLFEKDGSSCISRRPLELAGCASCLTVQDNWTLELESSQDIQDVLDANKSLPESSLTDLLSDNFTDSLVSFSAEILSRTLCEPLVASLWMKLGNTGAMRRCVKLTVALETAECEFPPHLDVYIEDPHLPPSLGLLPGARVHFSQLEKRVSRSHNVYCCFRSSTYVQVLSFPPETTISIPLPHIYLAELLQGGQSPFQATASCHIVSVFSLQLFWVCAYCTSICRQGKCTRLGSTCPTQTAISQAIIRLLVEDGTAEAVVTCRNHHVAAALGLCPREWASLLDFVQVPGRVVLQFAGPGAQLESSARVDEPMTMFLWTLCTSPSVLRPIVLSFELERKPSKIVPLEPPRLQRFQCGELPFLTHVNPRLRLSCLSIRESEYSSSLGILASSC
Sequence of human CST (CTC1–STN1–TEN1) heterotrimer, recombinant, from HEK293T cells (human) (Q9H668 whole entry, chain 2 of 3, further chain): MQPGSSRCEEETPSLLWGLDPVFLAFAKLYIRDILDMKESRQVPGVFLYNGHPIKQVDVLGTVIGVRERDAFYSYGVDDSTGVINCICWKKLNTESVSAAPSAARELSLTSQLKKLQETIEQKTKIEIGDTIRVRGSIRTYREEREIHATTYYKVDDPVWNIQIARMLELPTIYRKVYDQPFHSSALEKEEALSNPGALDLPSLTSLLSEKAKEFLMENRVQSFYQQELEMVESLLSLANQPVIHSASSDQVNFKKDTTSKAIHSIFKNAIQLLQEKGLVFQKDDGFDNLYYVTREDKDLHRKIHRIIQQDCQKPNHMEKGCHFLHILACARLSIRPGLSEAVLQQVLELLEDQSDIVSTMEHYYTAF
Sequence of human CST (CTC1–STN1–TEN1) heterotrimer, recombinant, from HEK293T cells (human) (Q86WV5 whole entry, chain 3 of 3, further chain): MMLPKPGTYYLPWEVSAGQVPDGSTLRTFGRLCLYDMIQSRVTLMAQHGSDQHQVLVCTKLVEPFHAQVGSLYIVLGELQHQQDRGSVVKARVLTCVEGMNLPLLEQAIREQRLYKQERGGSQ
Sequence of Polα–primase (DNA polymerase α-primase), endogenous human enzyme, four subunits (Q14181 whole entry, looked up, tested part not stated): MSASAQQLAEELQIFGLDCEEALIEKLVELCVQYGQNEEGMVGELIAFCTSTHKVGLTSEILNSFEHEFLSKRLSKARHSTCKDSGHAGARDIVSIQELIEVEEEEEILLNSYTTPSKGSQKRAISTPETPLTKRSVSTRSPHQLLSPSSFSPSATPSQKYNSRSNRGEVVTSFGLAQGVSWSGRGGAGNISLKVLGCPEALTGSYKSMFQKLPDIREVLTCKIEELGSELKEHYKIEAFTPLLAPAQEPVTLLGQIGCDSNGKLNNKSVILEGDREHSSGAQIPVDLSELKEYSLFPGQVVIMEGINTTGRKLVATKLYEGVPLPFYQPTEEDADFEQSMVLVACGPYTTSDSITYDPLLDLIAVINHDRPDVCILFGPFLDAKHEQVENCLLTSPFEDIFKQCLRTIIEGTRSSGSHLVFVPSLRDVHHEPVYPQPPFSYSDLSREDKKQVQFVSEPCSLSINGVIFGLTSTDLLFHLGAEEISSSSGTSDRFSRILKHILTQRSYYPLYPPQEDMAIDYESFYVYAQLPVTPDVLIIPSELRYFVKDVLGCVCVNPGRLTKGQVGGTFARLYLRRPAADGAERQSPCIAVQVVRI
Sequence of Polα–primase (DNA polymerase α-primase), endogenous human enzyme, four subunits (P09884 whole entry, looked up, tested part not stated): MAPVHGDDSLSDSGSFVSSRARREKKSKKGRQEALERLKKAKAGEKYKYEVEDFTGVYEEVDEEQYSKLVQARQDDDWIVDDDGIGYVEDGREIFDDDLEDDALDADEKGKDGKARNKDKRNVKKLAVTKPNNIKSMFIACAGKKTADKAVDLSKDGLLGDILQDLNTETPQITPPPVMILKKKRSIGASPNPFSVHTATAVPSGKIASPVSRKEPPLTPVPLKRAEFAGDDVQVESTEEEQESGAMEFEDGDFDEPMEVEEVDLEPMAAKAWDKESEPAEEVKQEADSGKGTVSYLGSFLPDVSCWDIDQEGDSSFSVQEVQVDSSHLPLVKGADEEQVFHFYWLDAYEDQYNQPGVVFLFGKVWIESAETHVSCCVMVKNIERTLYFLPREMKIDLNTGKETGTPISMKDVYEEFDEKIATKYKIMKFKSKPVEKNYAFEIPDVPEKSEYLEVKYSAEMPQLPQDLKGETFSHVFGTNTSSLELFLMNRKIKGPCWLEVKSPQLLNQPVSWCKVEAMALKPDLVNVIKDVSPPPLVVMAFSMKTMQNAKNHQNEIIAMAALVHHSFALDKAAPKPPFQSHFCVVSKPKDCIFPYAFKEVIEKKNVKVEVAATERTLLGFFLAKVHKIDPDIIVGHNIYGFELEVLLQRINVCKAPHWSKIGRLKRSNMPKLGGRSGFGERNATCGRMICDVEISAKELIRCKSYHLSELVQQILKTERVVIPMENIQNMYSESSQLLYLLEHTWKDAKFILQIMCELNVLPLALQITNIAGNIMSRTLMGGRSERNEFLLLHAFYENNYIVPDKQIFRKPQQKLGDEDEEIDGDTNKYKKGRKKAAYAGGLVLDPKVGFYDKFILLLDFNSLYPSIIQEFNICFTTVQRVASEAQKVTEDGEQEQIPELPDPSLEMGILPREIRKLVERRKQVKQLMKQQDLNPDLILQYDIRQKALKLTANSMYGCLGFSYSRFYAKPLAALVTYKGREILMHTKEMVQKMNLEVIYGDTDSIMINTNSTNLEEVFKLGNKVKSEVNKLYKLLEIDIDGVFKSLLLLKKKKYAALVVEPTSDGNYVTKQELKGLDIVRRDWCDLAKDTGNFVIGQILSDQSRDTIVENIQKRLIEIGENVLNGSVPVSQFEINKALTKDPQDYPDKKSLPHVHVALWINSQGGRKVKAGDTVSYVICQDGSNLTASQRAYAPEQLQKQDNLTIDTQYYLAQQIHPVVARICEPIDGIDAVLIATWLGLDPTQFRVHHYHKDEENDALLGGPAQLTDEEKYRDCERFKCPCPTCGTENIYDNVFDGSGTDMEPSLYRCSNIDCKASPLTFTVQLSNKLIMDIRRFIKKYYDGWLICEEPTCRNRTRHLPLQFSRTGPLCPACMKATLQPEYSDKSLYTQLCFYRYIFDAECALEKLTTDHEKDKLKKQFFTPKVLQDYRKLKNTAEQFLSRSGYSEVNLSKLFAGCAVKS

On to “Polα–primase (DNA polymerase α-primase), endogenous human enzyme, four subunits (from UniProt P09884 1-1462; Q14181 1-598) (complex)”, for which, in assay [1], the C-strand synthesis activity of CST–Polα–primase from HEK cells relative to recombinant human Polα–primase from insect cells, high concentrations of enzyme and template DNA (5 µM, 15×TEL) was over 10 fold; the C-strand synthesis activity of CST–Polα–primase from HEK cells relative to recombinant human Polα–primase from insect cells, standard reaction conditions (100 nM template) is over 10000 fold. The stoichiometry in the purified preparation (POLA per CST) in assay [2] is 0.21 POLA per CST.

The values above are taken from paper PMC9402439.
